Test results published in paper PMC10947486.

B1: Aspartate/asparagine-β-hydroxylase (AspH) (Homo sapiens; H679A) (protein)
chain: RKTDDPEQKAKVKKKKPKLLNKFDKTIKAELDAAEKLRKRGKIEEAVNAFKELVRKYPQSPRARYGKAQCEDDLAEKRRSNEVLRGAIETYQEVASLPDVPADLLKLSLKRRSDRQQFLGHMRGSLLTLQRLVQLFPNDTSLKNDLGVGYLLIGDNDNAKKVYEEVLSVTPNDGFAKVHYGFILKAQNKIAESIPYLKEGIESGDPGTDDGRFYFHLGDAMQRVGNKEAYKWYELGHKRGHFASVWQRSLYNVNGLKAQPWWTPKETGYTELVKSLERNWKLIRDEGLAVMDKAKGLFLPEDENLREKGDWSQFTLWQQGRRNENACKGAPKTCTLLEKFPETTGCRRGQIKYSIMHPGTHVWPATGPTNCRLRMHLGLVIPKEGCKIRCANETKTWEEGKVLIFDDSFEHEVWQDASSFRLIFIVDVWHPELTPQQRRSLPAI
B2: Aspartate/asparagine-β-hydroxylase (AspH) (Homo sapiens; H725A) (protein)
chain: RKTDDPEQKAKVKKKKPKLLNKFDKTIKAELDAAEKLRKRGKIEEAVNAFKELVRKYPQSPRARYGKAQCEDDLAEKRRSNEVLRGAIETYQEVASLPDVPADLLKLSLKRRSDRQQFLGHMRGSLLTLQRLVQLFPNDTSLKNDLGVGYLLIGDNDNAKKVYEEVLSVTPNDGFAKVHYGFILKAQNKIAESIPYLKEGIESGDPGTDDGRFYFHLGDAMQRVGNKEAYKWYELGHKRGHFASVWQRSLYNVNGLKAQPWWTPKETGYTELVKSLERNWKLIRDEGLAVMDKAKGLFLPEDENLREKGDWSQFTLWQQGRRNENACKGAPKTCTLLEKFPETTGCRRGQIKYSIMHPGTHVWPHTGPTNCRLRMHLGLVIPKEGCKIRCANETKTWEEGKVLIFDDSFEAEVWQDASSFRLIFIVDVWHPELTPQQRRSLPAI
B3: Aspartate/asparagine-β-hydroxylase (AspH) (Homo sapiens) (protein)
chain: RKTDDPEQKAKVKKKKPKLLNKFDKTIKAELDAAEKLRKRGKIEEAVNAFKELVRKYPQSPRARYGKAQCEDDLAEKRRSNEVLRGAIETYQEVASLPDVPADLLKLSLKRRSDRQQFLGHMRGSLLTLQRLVQLFPNDTSLKNDLGVGYLLIGDNDNAKKVYEEVLSVTPNDGFAKVHYGFILKAQNKIAESIPYLKEGIESGDPGTDDGRFYFHLGDAMQRVGNKEAYKWYELGHKRGHFASVWQRSLYNVNGLKAQPWWTPKETGYTELVKSLERNWKLIRDEGLAVMDKAKGLFLPEDENLREKGDWSQFTLWQQGRRNENACKGAPKTCTLLEKFPETTGCRRGQIKYSIMHPGTHVWPHTGPTNCRLRMHLGLVIPKEGCKIRCANETKTWEEGKVLIFDDSFEHEVWQDASSFRLIFIVDVWHPELTPQQRRSLPAI

substrate: O=C(O)CCC(=O)C(=O)O; assay: purified protein; conditions: Fe(II) active site Fe(II)

In order of falling Km:
1. B2  211 ± 65 µM
2. B1  109 ± 20 µM
3. B3  1.1 ± 0.4 µM

In order of falling kcat:
1. B3  0.31 s⁻¹
2. B1  0.18 s⁻¹
3. B2  0.08 s⁻¹

In order of rising kcat/Km:
1. B2  380 M⁻¹ s⁻¹
2. B1  1700 M⁻¹ s⁻¹
3. B3  282000 M⁻¹ s⁻¹
